Measured values published in article PMC6016464, “Folding and binding pathways of BH3-only proteins are encoded within their intrinsically disordered sequence, not templated by partner proteins” (The Journal of Biological Chemistry, 2018).
Like-named read-outs stand apart in the source and are kept apart here. One block for each binder: values may come before it. Where no end group is shown, it is not given here. The star is where a group is joined. TAMRA = 5-carboxytetramethylrhodamine, CN(C)c1ccc2c(-c3ccc(C(=O)*)cc3C(=O)[O-])c3ccc(=[N+](C)C)cc-3oc2c1

Experiments:
[1] = molecular target: T1, A1 protein (mouse, residues 1-152, P104K C113S, used as wild type) (mouse); assay: stopped-flow fluorescence kinetics + other: fluorescence dissociation kinetics with competitor; Kd calculated as the ratio koff/kon of the kinetic rate constants; 25 °C; 50 mM sodium phosphate, 0.05% (v/v) Tween 20, pH 7.0
T1 sequence (Q07440 1-152 with P104K C113S, looked up): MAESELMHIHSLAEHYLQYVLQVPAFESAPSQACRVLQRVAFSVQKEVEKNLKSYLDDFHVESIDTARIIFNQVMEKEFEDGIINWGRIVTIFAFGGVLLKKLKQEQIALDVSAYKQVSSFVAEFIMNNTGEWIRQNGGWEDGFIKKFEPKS

[2] = molecular target: T1, A1 protein (mouse, residues 1-152, P104K C113S, used as wild type) (mouse); assay: fluorescence dissociation kinetics with competitor; dissociation; preformed complex of TAMRA-labelled peptide and partner protein mixed with excess unlabeled PUMA peptide as competitor; stopped-flow or Cary Eclipse spectrophotometer; 25 °C; 50 mM sodium phosphate, 0.05% (v/v) Tween 20, pH …
[3] = molecular target: T2, MCL-1 (mouse, residues 152-308) (mouse); assay: other fluorescence titration; equilibrium binding curve of TAMRA-labelled peptide, fluorescence (A.U.) against MCL-1 concentration; 50 mM sodium phosphate, 0.05% (v/v) Tween 20, pH 7.0; conditions: both partners purified
T2 construct: remnant of thrombin cleavage at the N-terminus of MCL-1; MCL-1, mouse, residues 152-308, UniProt P97287; source: E. coli C41 pLysS, purified (Ni2+ agarose, thrombin cleavage, ion exchange, Superdex G75 gel filtration); not shown: His6, N-terminal, cleaved
T2 chain: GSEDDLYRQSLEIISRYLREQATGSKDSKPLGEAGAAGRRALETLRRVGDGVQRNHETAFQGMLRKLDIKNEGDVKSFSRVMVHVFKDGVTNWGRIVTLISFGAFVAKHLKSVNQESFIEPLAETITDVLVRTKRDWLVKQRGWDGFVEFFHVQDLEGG

[4] = molecular target: T1, A1 protein (mouse, residues 1-152, P104K C113S, used as wild type) (mouse); assay: stopped-flow fluorescence kinetics; association; TAMRA-labelled peptide with folded partner at least 10-fold higher (pseudo-first-order); kon from the gradient of kobs versus partner concentration; 25 °C; 50 mM sodium phosphate, 0.05% (v/v) Tween 20, pH 7.0
[5] = molecular target: T2, MCL-1 (mouse, residues 152-308); assay: stopped-flow fluorescence kinetics; association; TAMRA-labelled peptide with folded partner at least 10-fold higher (pseudo-first-order); kon from the gradient of kobs versus partner concentration; 25 °C; 50 mM sodium phosphate, 0.05% (v/v) Tween 20, pH 7.0; conditions: both partners purified
Summary of the method: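 The association rate constant is the slope of observed rate versus partner concentration, from stopped-flow fluorescence of TAMRA-labelled peptide with mouse MCL-1 (residues 152–308). The partner was in at least 10-fold excess, in 50 mM sodium phosphate, 0.05% (v/v) Tween 20, pH 7.0, at 25 °C. Excitation was at 555 nm with emission above 570 nm, and each observed rate came from a single-exponential fit.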

[6] = molecular target: T2, MCL-1 (mouse, residues 152-308); assay: fluorescence dissociation kinetics with competitor; dissociation; preformed complex of TAMRA-labelled peptide and partner protein mixed with excess unlabeled PUMA peptide as competitor; stopped-flow or Cary Eclipse spectrophotometer; 25 °C; 50 mM sodium phosphate, 0.05% (v/v) Tween 20, pH 7.0; conditions: both partners purified
Summary of the method: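 In buffer of 50 mM sodium phosphate with 0.05% (v/v) Tween 20 at pH 7.0 and 25 °C, a preformed complex of mouse MCL-1 (residues 152–308) and TAMRA-labelled peptide was mixed with varying amounts of unlabelled competitor peptide. Fluorescence changes, recorded by stopped-flow for kobs > 0.03 s^−1 or by Cary Eclipse for kobs < 0.03 s^−1, were fit to single exponentials. The dissociation rate constant is the average of the concentration-independent kobs values reached with sufficient competitor excess.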

[7] = molecular target: T1, A1 protein (mouse, residues 1-152, P104K C113S, used as wild type) (mouse); assay: fluorescence dissociation kinetics with competitor; dissociation; preformed complex of TAMRA-labelled peptide and partner protein mixed with excess unlabeled PUMA peptide as competitor; stopped-flow or Cary Eclipse spectrophotometer; 25 °C; 50 mM sodium phosphate, 0.05% (v/v) Tween 20, pH …; remark: listed apart in the source
[8] = molecular target: T1, A1 protein (mouse, residues 1-152, P104K C113S, used as wild type) (mouse); assay: stopped-flow fluorescence kinetics; association; TAMRA-labelled peptide with folded partner at least 10-fold higher (pseudo-first-order); kon from the gradient of kobs versus partner concentration; 25 °C; 50 mM sodium phosphate, 0.05% (v/v) Tween 20, pH 7.0; remark: listed apart in the source
[9] = molecular target: T2, MCL-1 (mouse, residues 152-308); assay: stopped-flow fluorescence kinetics + other: fluorescence dissociation kinetics with competitor; Kd calculated as the ratio koff/kon of the kinetic rate constants; 25 °C; 50 mM sodium phosphate, 0.05% (v/v) Tween 20, pH 7.0; conditions: both partners purified
[10] = molecular target: T1, A1 protein (mouse, residues 1-152, P104K C113S, used as wild type) (mouse); assay: fluorescence polarisation; equilibrium binding by fluorescence anisotropy of the TAMRA-labelled peptide against partner protein concentration; anisotropy adjusted for the change in fluorescence intensity; 25 °C; 50 mM sodium phosphate, 0.05% (v/v) Tween 20, pH 7.0
[11] = molecular target: T2, MCL-1 (mouse, residues 152-308); assay: as above; conditions: both partners purified
[12] = molecular target: T3, MCL-1 (mouse, residues 152-308) (mouse, UniProt P97287 152-308); assay: dissociation kinetics by competition (fluorescence); preformed complex of TAMRA peptide and partner protein mixed with various concentrations of unlabeled PUMA peptide as competitor; stopped-flow or spectrophotometer; 25 °C; 50 mM sodium phosphate, 0.05% (v/v) Tween 20, pH 7.0; conditions: both partners purified
T3 construct: MCL-1, mouse, residues 152-308, UniProt P97287; source: recombinantly produced, purified (protocol in the supplemental Experimental Procedures)

B1: PUMA (A139G A150G) peptide (on the M144A wild type), TAMRA-labelled (peptide, UniProt Q99ML1 127-161, looked up)
chain: {TAMRA}-RVEEEEWAREIGGQLRRAADDLNGQYERRRQEEQH
notes: PUMA, mouse, residues 127-161, UniProt Q99ML1; Double mutant; also called A150G (A139G); source: synthetic peptide (Biomatik)
Kd [1]: 1.4 nM | koff [2]: 0.0039 s⁻¹ | Kd [3]: 1.7 ± 0.2 nM | kon [4]: 2.78e+06 M⁻¹ s⁻¹

B4: BID I83A peptide, TAMRA-labelled (peptide, UniProt P70444 76-110, looked up)
chain: {TAMRA}-SESQEEIAHNIARHLAQIGDEMDHNIQPTLVRQLA
notes: BID, mouse, residues 76-110, UniProt P70444; source: synthetic peptide (Biomatik)
Kd [1]: 0.29 nM | kon [5]: 8.6e+06 M⁻¹ s⁻¹ | koff [6]: 0.014 s⁻¹ | koff [7]: 0.002 s⁻¹ | kon [8]: 7e+06 M⁻¹ s⁻¹ | Kd [9]: 1.7 nM

B6: BID L90A peptide, TAMRA-labelled (peptide, UniProt P70444 76-110, looked up)
chain: {TAMRA}-SESQEEIIHNIARHAAQIGDEMDHNIQPTLVRQLA
notes: as for B4
Kd [1]: 210 nM | koff [2]: 0.66 s⁻¹ | kon [5]: 2.1e+06 M⁻¹ s⁻¹ | koff [6]: 1.3 s⁻¹ | Kd [10]: 360 nM | kon [4]: 3.1e+06 M⁻¹ s⁻¹ | Kd [9]: 610 nM | Kd [11]: 1200 nM

Binder: {TAMRA}-RVEEEEWAREIGAQARRAADDLNAQYERRRQEEQH [PUMA L141A peptide (on the M144A wild type), TAMRA-labelled]
Kd [1]: 735 nM | koff [2]: 1.23 s⁻¹ | Kd [10]: 710 nM | kon [4]: 1.67e+06 M⁻¹ s⁻¹

B7: BID peptide (mouse, residues 76-110), N-terminal TAMRA (peptide, UniProt P70444 76-110, looked up)
peptide: {TAMRA}-SESQEEIIHNIARHLAQIGDEMDHNIQPTLVRQLA
notes: BID, mouse, residues 76-110, UniProt P70444; source: synthetic peptide (synthesized by Biomatik)
binding result [12]: binds

Binder: {TAMRA}-RVEEEEWAREIGAQLRRAADDANAQYERRRQEEQH [PUMA L148A peptide (on the M144A wild type), TAMRA-labelled]
Kd [1]: 7.1 nM | koff [2]: 0.0348 s⁻¹ | Kd [10]: 5.65 nM | kon [4]: 4.9e+06 M⁻¹ s⁻¹

Further lines, results first:

Kd [1]: 0.02 nM | kon [5]: 6.5e+06 M⁻¹ s⁻¹ | koff [6]: 0.0036 s⁻¹ | koff [7]: 0.000213 s⁻¹ | kon [8]: 1.07e+07 M⁻¹ s⁻¹ | Kd [9]: 0.55 nM
B2: BID E81A peptide, TAMRA-labelled (peptide, UniProt P70444 76-110, looked up)
chain: {TAMRA}-SESQEAIIHNIARHLAQIGDEMDHNIQPTLVRQLA
notes: as for B4

Kd [1]: 0.022 nM | kon [5]: 8.2e+06 M⁻¹ s⁻¹ | koff [6]: 0.0025 s⁻¹ | koff [7]: 0.0002 s⁻¹ | kon [8]: 8.6e+06 M⁻¹ s⁻¹ | Kd [9]: 0.3 nM
B3: BID I101A peptide, TAMRA-labelled (peptide, UniProt P70444 76-110, looked up)
chain: {TAMRA}-SESQEEIIHNIARHLAQIGDEMDHNAQPTLVRQLA
notes: as for B4

Kd [1]: 0.047 nM | kon [5]: 4.8e+06 M⁻¹ s⁻¹ | koff [6]: 0.008 s⁻¹ | koff [7]: 0.000454 s⁻¹ | kon [8]: 9.6e+06 M⁻¹ s⁻¹ | Kd [9]: 1.6 nM
B5: BID E81G peptide, TAMRA-labelled (peptide, UniProt P70444 76-110, looked up)
chain: {TAMRA}-SESQEGIIHNIARHLAQIGDEMDHNIQPTLVRQLA
notes: as for B4
